# Assay results: patent US20170107273A1 (JAPAN AS REPRESENTED BY DIRECTOR GENERAL OF NATIONAL …, published 2017)
# * marks the point of attachment. Biotin = O=C1N[C@H]2[C@H](CS[C@H]2CCCCC(=O)*)N1
# T1: E2 protein of the TH strain (genotype 1b) on TH/JFH-1 HCVcc (Hepatitis C virus TH strain (genotype …))
# T1 chain: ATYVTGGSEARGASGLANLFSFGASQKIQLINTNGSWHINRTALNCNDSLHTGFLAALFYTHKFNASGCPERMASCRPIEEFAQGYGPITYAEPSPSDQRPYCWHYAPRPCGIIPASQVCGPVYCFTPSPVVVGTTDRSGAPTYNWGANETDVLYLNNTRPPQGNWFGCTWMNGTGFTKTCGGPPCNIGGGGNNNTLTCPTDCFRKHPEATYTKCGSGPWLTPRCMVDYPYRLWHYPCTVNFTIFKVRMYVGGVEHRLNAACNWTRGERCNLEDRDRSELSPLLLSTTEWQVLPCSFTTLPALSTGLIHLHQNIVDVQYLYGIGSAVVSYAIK
# T2: QLINTNGSWHIN (SEQ ID NO: 37), TH E2 protein-derived peptide (Hepatitis C virus TH strain (genotype …, SMILES …))
# T2 construct: also called linear peptide of 12 amino acid residues
# T2 peptide: Biotin-QLINTNGSWHING-NH2
# T3: denatured TH E2-Fc protein (Hepatitis C virus TH strain (genotype …))
# T3 construct: also called denatured E2 protein; not shown: Fc domain of human immunoglobulin (human IgG) from vector CDM-mIL7R-Ig
# T3 chain: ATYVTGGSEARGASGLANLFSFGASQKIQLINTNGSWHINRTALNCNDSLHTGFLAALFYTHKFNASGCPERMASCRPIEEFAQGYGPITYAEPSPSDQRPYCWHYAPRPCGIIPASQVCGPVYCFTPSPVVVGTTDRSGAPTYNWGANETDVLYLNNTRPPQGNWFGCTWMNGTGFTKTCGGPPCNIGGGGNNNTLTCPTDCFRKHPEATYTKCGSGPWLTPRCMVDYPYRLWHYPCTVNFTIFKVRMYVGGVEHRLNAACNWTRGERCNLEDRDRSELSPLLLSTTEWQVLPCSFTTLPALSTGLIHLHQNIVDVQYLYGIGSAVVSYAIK
# Experiments:
# [1] = target: T1, E2 protein of the TH strain (genotype …); assay: cell-based or functional assay
# [2] = target: E2 protein of the S310 strain (genotype 3a) on S310/JFH-1 HCVcc (Hepatitis C virus S310 strain (genotype …)); assay: cell-based or functional assay
# [3] = target: E2 protein of the H77 strain (genotype 1a) on H77/JFH-1 HCVcc (Hepatitis C virus H77 strain (genotype …, UniProt P27958 384-746)); assay: cell-based or functional assay
# E2 protein of the H77 strain (genotype 1a) on H77/JFH-1 HCVcc (Hepatitis C virus H77 strain, sequence (P27958 384-746 limits assumed): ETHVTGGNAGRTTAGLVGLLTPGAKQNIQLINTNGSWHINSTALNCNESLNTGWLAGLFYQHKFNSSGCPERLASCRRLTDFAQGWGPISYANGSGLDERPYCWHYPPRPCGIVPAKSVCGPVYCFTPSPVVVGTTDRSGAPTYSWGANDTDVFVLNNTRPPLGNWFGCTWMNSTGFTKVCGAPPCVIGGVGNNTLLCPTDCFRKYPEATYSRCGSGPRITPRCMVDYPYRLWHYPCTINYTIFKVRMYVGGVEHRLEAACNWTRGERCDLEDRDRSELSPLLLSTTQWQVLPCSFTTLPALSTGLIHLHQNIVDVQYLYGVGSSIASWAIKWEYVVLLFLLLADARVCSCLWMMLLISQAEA
# [4] = target: T2, QLINTNGSWHIN (SEQ ID NO: 37), TH E2 …; assay: ELISA on biotinylated 12-mer peptides on streptavidin plates
# [5] = target: E2 protein on J6/JFH-1 HCVcc-8W (J6/JFH-1 HCVcc after 8 rounds of subculture infection in the presence of the …); assay: cell-based or functional assay
# [6] = target: T3, denatured TH E2-Fc protein; assay: ELISA, biotinylated antibody on immobilized denatured TH E2-Fc, avidin-HRP
Binder,IC50 (µg/mL) of infection inhibiting activity against HCVcc (HCV core protein in Huh-7 cells) [1],IC50 (µg/mL) of infection inhibiting activity against HCVcc (HCV core protein in Huh-7 cells) [2],IC50 (µg/mL) of infection inhibiting activity against HCVcc (HCV core protein in Huh-7 cells) [3],binding result [4],"IC50 (µg/mL), 50% infection inhibiting concentration (infectious titer, focus count on Huh-7 cells) [5]",binding result [6]
"e2d066 IgG (antibody, V domains shown, Human IgG1 made in CHO-K1 cells; also called biotinylated e2d066 IgG; ed2066 IgG) VH: QVQLVQSGSDVKKPGSSVRVSCKASGGSFNSYAVNWVRQAPGQGLEWMGRIMPLVGLPEYAERFQERVTFTADKSTRTAYMDLTSLSSDDTAFYFCAVGVMKIFGEVPLNLDFWGQGTLVTVSS VL: QAVLTQPSSVSGSPGQSITISCTGTSNDVGSYRYVSWFQQHPGKAPKLMIYDVNKRPSGVSSRFSGSKSGNTASLTISGLQAEDEANYYCSSYTRSSSLAFGGGTKLTVLS",0.11 µg/mL,1.03 µg/mL,3.3 µg/mL,no binding (tested: 1 µg/mL),< 0.01 µg/mL,
"e2d081 IgG (antibody, V domains shown, Human IgG1 made in CHO-K1 cells; also called eE2d081 IgG) VH: QVQLVQSGSDVKKPGSSVRVSCKASGGSFNSYAVNWVRQAPGQGLEWMGRIMPLVGLPEYAERFQERVTFTADKSTRTAYMDLTSLSSDDTAFYFCAVGVMKIFGEVPLNLDFWGQGTLVTVSS VL: QSVLTQPPSVSAAPGQKVTISCSGTSSNIGDNYVSWYQHLPGSAPKLLIYDNNKRPSGIPDRFSGSKSGTSATLGITGLQTGDEADFYCGTWDSSLSSVVFGGGTKLTVLG",0.05 µg/mL,0.5 µg/mL,0.66 µg/mL,no binding (tested: 1 µg/mL),0.67 µg/mL,
"e2d073 IgG (antibody, V domains shown, Human IgG1 made in CHO-K1 cells) VH: QVQLVQSGAEVKKPGSSVKVSCKASGASFNSFAIDWVRQAPGQGLEWMGRIIPIADVSDYAQKFQGRVTITADKSTRTAYMELTTLRSDDTAVYYCATSPMLTFGGPNAFGAFDVWGQGTMVTVSS VL: not shown",0.25 µg/mL,10.4 µg/mL,> 30 µg/mL,no binding (tested: 1 µg/mL),59.4 µg/mL,no binding
